Source: US20150024459A1

Assays:
[1] = molecular target: IGF-1R on human cancer cell lines (human) (UniProt P08069); assay: cell-based or functional assay
[2] = molecular target: IGF-1R on human cancer cell lines (human) (UniProt P08069); assay: 125I-IGF-1 binding to MCF-7L cells; antibody at 100 ng/mL
[3] = molecular target: IGF-1R on human cancer cell lines (human) (UniProt P08069); assay: 125I-IGF-1 binding to MCF-7L cells; antibody at 1000 ng/mL
[4] = molecular target: IGF-1R and EGP-1 together on MCF-7, DU145 or ME-180 cells (human) (UniProt P08069); assay: flow cytometry (FACScan), MCF-7 cells; control
[5] = molecular target: IGF-1R and EGP-1 together on MCF-7, DU145 or ME-180 cells (human) (UniProt P08069); assay: flow cytometry (FACScan), ME-180 cells; control
[6] = molecular target: IGF-1R and EGP-1 together on MCF-7, DU145 or ME-180 cells (human) (UniProt P08069); assay: flow cytometry (FACScan), DU145 cells; control

maximum growth inhibition, 786-O cells, serum-free with IGF-1 100 ng/mL, MTS, antibody 8 nM [1] [%]	maximum growth inhibition, ACHN cells, serum-free with IGF-1 100 ng/mL, MTS, antibody 200 nM [1] [%]	maximum growth inhibition, Caki-2 cells, serum-free with IGF-1 100 ng/mL, MTS, antibody 8 nM [1] [%]	% binding of 125I-IGF-1 in the presence of the antibody [2] [%]	% binding of 125I-IGF-1 in the presence of the antibody [3] [%]	% Positive [4] [%]	MFI [4]	% Positive [5] [%]	MFI [5]	% Positive [6] [%]	MFI [6]	Substance
34	48	50	54	38	–	–	–	–	–	–	MAB391 (antibody)
–	–	–	–	–	2.34	1.84	1.37	1.8	1.44	2.21	human IgG (antibody)
